Experimental data taken from patent US20250313638A1 (KISOJI BIOTECHNOLOGY, published 2025).
Read-outs that look alike come from different tables or passages of the source. Each block holds one binder with its values, some of them ahead of it.

Key:
[1] = target: T1, recombinant human PD-1 protein (human, UniProt Q15116 25-167); experiment: ELISA: recombinant human PD-1 coated on the plate, anti-human-Fc-HRP, chemiluminescence
T1 construct: Bought (Cedarlane Cat. No. HPLC-10377-H08H-100); also called human recombinant PD1 protein; PD-1 recombinant protein
Protocol: (§1) Briefly, recombinant proteins were coated on 96-well plates. Plates were covered and left at 4° C. overnight. The next day, plates were washed once with PBS and blocked with blocking buffer for 1 hour at room temperature. Binding agents were tested at the indicated concentration (357 nM starting concentration, followed by 12 one in four serial dilutions for FIG. 9B lower panel), diluted in the blocking buffer, and incubated for 1 hour at 37° C. After incubation, plates were washed three times with washing buffer. Plates were incubated with anti-human-Fc-HRP (Sigma-Aldrich, Cat. No. AP113P) diluted at 1:5000 for 1 hour at room temperature, then washed three times with PBS-T washing buffer. The signal was developed with SuperSignal™ ELISA Pico Chemiluminescent Substrate (Thermofisher, Cat. No. 37069). The plates were read on a SpectraMax™ i3x Multi-Mode Microplate Reader (Molecular Devices).

[2] = target: T2, human PD-1 on CHO-PD1 cells (human, UniProt Q15116 25-288); experiment: flow cytometry on CHO-PD1 cells, APC anti-human-Fc secondary antibody
T2 construct: also called CHO-PD-1 cell line

[3] = target: T3, recombinant cynomolgus monkey PD-1 protein (cynomolgus monkey, UniProt B0LAJ3 25-170); experiment: ELISA: recombinant cynomolgus PD-1 coated on the plate, anti-human-Fc-HRP, chemiluminescence
T3 construct: also called cynomolgus monkey recombinant PD1 protein
Protocol: as §1

[4] = target: T4, human CD47 on cells (HEK293T cells, human blood cells, primary human T cells) (human, UniProt Q08722 19-323); experiment: flow cytometry on primary human T cells
T4 construct: Endogenous CD47 of human cells; For blood cells and T cells it is inferred from the specificity of the anti-CD47 module

[5] = target: T1, recombinant human PD-1 protein; experiment: ELISA: recombinant human PD-1 coated on the plate, anti-human-Fc-HRP, chemiluminescence; remark: listed apart in the source
Protocol: as §1

[6] = target: PD-1 on the Jurkat effector cells of the PD-1/PD-L1 blockade bioassay (UniProt Q15116 25-288, limits assumed); experiment: cell-based or functional assay
[7] = target: T5, recombinant rat PD-1 protein (rat, UniProt D3ZIN8 25-169); experiment: ELISA: recombinant rat PD-1 coated on the plate, anti-human-Fc-HRP, chemiluminescence
T5 construct: also called rat recombinant PD1 protein
T5 sequence: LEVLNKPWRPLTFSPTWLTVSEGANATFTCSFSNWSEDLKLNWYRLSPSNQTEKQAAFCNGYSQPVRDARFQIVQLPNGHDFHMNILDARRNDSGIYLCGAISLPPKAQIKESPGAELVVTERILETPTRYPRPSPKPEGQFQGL
Protocol: as §1

[8] = target: T1, recombinant human PD-1 protein; experiment: ELISA: recombinant human PD-1 coated on the plate, anti-human-Fc-HRP, chemiluminescence; remark: listed apart in the source
Protocol: as §1

BSA = target: T6, BSA; experiment: ELISA: BSA coated on the plate, anti-human-Fc-HRP, chemiluminescence
T6 construct: also called control protein (BSA)
Protocol: as §1

[9] = target: T7, recombinant cynomolgus CD47 protein (cynomolgus monkey, UniProt A0A5F8AK49 19-139 (rhesus entry)); experiment: ELISA: recombinant cynomolgus CD47 coated on the plate, chemiluminescence
T7 construct: also called cynomolgus monkey CD47 recombinant protein

[10] = target: T8, recombinant human CD47 protein (human, UniProt Q08722 19-139); experiment: ELISA: recombinant human CD47 coated on the plate, chemiluminescence
T8 construct: Bought (Cedarlane Cat. No. 12283-H08H-200); also called human recombinant CD47 protein; CD47 recombinant protein

T1 sequence (Q15116 25-167 limits assumed): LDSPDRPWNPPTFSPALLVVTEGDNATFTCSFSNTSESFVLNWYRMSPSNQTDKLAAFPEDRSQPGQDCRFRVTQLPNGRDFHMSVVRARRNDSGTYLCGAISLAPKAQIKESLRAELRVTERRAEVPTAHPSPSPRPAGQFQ
T3 sequence (B0LAJ3 entry or part of it limits assumed): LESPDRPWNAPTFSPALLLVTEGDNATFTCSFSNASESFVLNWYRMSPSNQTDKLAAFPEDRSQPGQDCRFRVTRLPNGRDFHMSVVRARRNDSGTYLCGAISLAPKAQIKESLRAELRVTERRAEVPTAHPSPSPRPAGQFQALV
T6 sequence (chain, as listed by the source limits assumed): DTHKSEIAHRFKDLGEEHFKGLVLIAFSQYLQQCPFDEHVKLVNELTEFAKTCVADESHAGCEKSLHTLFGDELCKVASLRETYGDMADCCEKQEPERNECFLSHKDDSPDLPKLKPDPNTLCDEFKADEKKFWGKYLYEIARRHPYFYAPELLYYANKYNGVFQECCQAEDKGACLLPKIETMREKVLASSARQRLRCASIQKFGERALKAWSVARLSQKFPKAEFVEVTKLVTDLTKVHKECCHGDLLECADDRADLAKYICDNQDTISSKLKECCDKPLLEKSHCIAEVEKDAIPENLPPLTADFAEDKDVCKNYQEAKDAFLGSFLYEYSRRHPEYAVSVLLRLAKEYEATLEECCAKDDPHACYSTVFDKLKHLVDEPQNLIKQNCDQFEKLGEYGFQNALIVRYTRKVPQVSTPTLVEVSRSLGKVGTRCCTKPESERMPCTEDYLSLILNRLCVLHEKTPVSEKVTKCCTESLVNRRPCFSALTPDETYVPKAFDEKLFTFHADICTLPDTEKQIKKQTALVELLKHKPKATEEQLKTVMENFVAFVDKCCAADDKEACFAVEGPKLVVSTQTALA
T2 sequence (Q15116 25-288 limits assumed): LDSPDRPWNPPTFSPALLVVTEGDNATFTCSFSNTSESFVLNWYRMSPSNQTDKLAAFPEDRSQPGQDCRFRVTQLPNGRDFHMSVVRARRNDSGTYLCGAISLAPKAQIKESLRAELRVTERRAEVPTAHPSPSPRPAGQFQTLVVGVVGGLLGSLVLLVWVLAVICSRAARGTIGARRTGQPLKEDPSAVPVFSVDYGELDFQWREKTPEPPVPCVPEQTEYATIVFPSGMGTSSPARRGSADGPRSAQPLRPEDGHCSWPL
PD-1 on the Jurkat effector cells of the PD-1/PD-L1 blockade bioassay, sequence (Q15116 25-288 limits assumed): as above

B3: KC036 (Fc fusion)
chain: QVQLVESGGGSVQAGGSLRLSCAASGSTDSIEYMTWFRQAPGKAREGVAALYTHTGNTYYTDSVKGRFTISQDKAKNMAYLRMDSVKSEDTAIYTCGATRKYVPVRFALDQSSYDYWGQGTQVTVSSEPKSCDKTHTCPPCPAPELLGGPSVFLFPPKPKDTLMISRTPEVTCVVVDVSHEDPEVKFNWYVDGVEVHNAKTKPREEQYNSTYRVVSVLTVLHQDWLNGKEYKCKVSNKALPAPIEKTISKAKGQPREPQVYTLPPSREQMTKNQVSLTCLVKGFYPSDIAVEWESNGQPENNYKTTPPVLNSDGSFFLYSKLTVDKSRWQQGNVFSCSVMHEALHNHYTQESLSLSPGKAPAPAPAPAPKAQVQLQESGGGWVQPGGSLRLSCVASGFTFSRSSMSWHRQAPGKERDLVAIISSSGIITHYSDSVKGRFTISRDNAKDTVYLQMNSLKPEDTAVYVCNAVLDDDSGDYWGQGTQVTVSSGGGGSGGGGSGGGGSQVQLVESGGGSVQAGGSLRLSCAASGSTDSIEYMTWFRQAPGKAREGVAALYTHTGNTYYTDSVKGRFTISQDKAKNMAYLRMDSVKSEDTAIYTCGATRKYVPVRFALDQSSYDYWGQGTQVTVSS
notes: May comprise a His-tag or not; also called (HEWL)
EC50 (read off the curve) [1]: ~100 pM | EC50 (read off the curve) [5]: ~200 pM | EC50 (read off the curve), PD-1/PD-L1 blockade NFAT-luciferase reporter [6]: ~2000 pM | EC50 (read off the curve) [7]: ~100 pM | EC50 (read off the curve) [8]: ~200 pM | binding result (BSA): no binding (tested: about 700 nM) | EC50 (read off the curve) [3]: ~100 pM

B4: KC067 (Fc fusion)
chain: QVQLVESGGGSVQAGGSLRLSCAASGSTDSIEYMTWFRQAPGKAREGVAALYTHTGNTYYTDSVKGRFTISQDKAKNMAYLRMDSVKSEDTAIYTCGATRKYVPVRFALDQSSYDYWGQGTQVTVSSEPKSCDKTHTCPPCPAPELLGGPSVFLFPPKPKDTLMISRTPEVTCVVVDVSHEDPEVKFNWYVDGVEVHNAKTKPREEQYNSTYRVVSVLTVLHQDWLNGKEYKCKVSNKALPAPIEKTISKAKGQPREPQVYTLPPSREQMTKNQVSLTCLVKGFYPSDIAVEWESNGQPENNYKTTPPVLNSDGSFFLYSKLTVDKSRWQQGNVFSCSVMHEALHNHYTQESLSLSPGKAPAPAPAPAPKAQVQLQESGGGLVQPGGSLRLSCAASGFTFSNYGMSWVRQAPGEGLEWVSSIDSTGGTTRYADSVKGRFTISRDNAKNALYLQMNSLKPEDTAVYYCAKDFLSWMPRGQGTQVTVSSGGGGSGGGGSGGGGSQVQLVESGGGSVQAGGSLRLSCAASGSTDSIEYMTWFRQAPGKAREGVAALYTHTGNTYYTDSVKGRFTISQDKAKNMAYLRMDSVKSEDTAIYTCGATRKYVPVRFALDQSSYDYWGQGTQVTVSS
notes: the ranges are mine
EC50 (read off the curve) [5]: ~500 pM

B5: monoclonal anti-CD47 antibody clone B6H12 (antibody)
chain: EVQLVESGGDLVKPGGSLKLSCAASGFTFSGYGMSWVRQTPDKRLEWVATITSGGTYTYYPDSVKGRFTISRDNAKNTLYLQIDSLKSEDTAIYFCARSLAGNAMDYWGQGTSVTVSSGGGGSGGGGSGGGGSDIVMTQSPATLSVTPGDRVSLSCRASQTISDYLHWYQQKSHESPRLLIKFASQSISGIPSRFSGSGSGSDFTLSINSVEPEDVGVYYCQNGHGFPRTFGGGTKLEIK
EC50 (read off the curve) [9]: ~100 pM | EC50 (read off the curve) [10]: ~500 pM

The remaining lines, values ahead:

binding result [1]: no binding (tested: about 700 nM) | binding result [2]: no binding | binding result [3]: no binding (tested: about 700 nM) | binding result [4]: no binding (tested: 350 nM)
B1: KC035 (Fc fusion)
chain: QVQLVESGGGSVQAGGSLRLSCAASGSTDSIEYMTWFRQAPGKAREGVAALYTHTGNTYYTDSVKGRFTISQDKAKNMAYLRMDSVKSEDTAIYTCGATRKYVPVRFALDQSSYDYWGQGTQVTVSSEPKSCDKTHTCPPCPAPELLGGPSVFLFPPKPKDTLMISRTPEVTCVVVDVSHEDPEVKFNWYVDGVEVHNAKTKPREEQYNSTYRVVSVLTVLHQDWLNGKEYKCKVSNKALPAPIEKTISKAKGQPREPQVYTLPPSREQMTKNQVSLTCLVKGFYPSDIAVEWESNGQPENNYKTTPPVLNSDGSFFLYSKLTVDKSRWQQGNVFSCSVMHEALHNHYTQESLSLSPGKAPAPAPAPAPKAQVQLVESGGGSVQAGGSLRLSCAASGSTDSIEYMTWFRQAPGKAREGVAALYTHTGNTYYTDSVKGRFTISQDKAKNMAYLRMDSVKSEDTAIYTCGATRKYVPVRFALDQSSYDYWGQGTQVTVSSGGGGSGGGGSGGGGSQVQLVESGGGSVQAGGSLRLSCAASGSTDSIEYMTWFRQAPGKAREGVAALYTHTGNTYYTDSVKGRFTISQDKAKNMAYLRMDSVKSEDTAIYTCGATRKYVPVRFALDQSSYDYWGQGTQVTVSS
notes: Three anti-HEWL VHHs on an Fc; May comprise a His-tag or not; also called negative control

binding result [4]: no binding (tested: 350 nM)
B2: KC034 (Fc fusion)
VHH-hinge-CH2-CH3-linker-VHH-linker-VHH polypeptide chain: QVQLVESGGGSVQAGGSLRLSCAASGSTDSIEYMTWFRQAPGKAREGVAALYTHTGNTYYTDSVKGRFTISQDKAKNMAYLRMDSVKSEDTAIYTCGATRKYVPVRFALDQSSYDYWGQGTQVTVSSEPKSCDKTHTCPPCPAPELLGGPSVFLFPPKPKDTLMISRTPEVTCVVVDVSHEDPEVKFNWYVDGVEVHNAKTKPREEQYNSTYRVVSVLTVLHQDWLNGKEYKCKVSNKALPAPIEKTISKAKGQPREPQVYTLPPSREQMTKNQVSLTCLVKGFYPSDIAVEWESNGQPENNYKTTPPVLNSDGSFFLYSKLTVDKSRWQQGNVFSCSVMHEALHNHYTQESLSLSPGKAPAPAPAPAPKAQVQLVESGGGSVQAGGSLRLSCAASGSTDSIEYMTWFRQAPGKAREGVAALYTHTGNTYYTDSVKGRFTISQDKAKNMAYLRMDSVKSEDTAIYTCGATRKYVPVRFALDQSSYDYWGQGTQVTVSSGGGGSGGGGSGGGGSEVQLVESGGGLVQPGGSLRLSCAASGDIYKSFDMGWYRQAPGKQRDLVAVIGSRGNNRGRTNYADSVKGRFTISRDGTGNTVYLLMNKLRPEDTAIYYCNTAPLVAGRPWGRGTLVTVSS
notes: also called (HEWL)
